Experiments:
[1] = target: T1, angiotensin converting enzyme (ACE), obtained from Sigma Chemicals; assay: cell-based or functional assay
[2] = target: T1, angiotensin converting enzyme (ACE), …; assay: cell-based or functional assay; remark: listed apart in the source

IPP [tripeptide IPP (Ile-Pro-Pro), chemically synthesised]
IC50 value in µM, Modified Matsui assay (cleavage of Hip-His-Leu by ACE) [1]: 2 µM
IC50 value in µM, at-line ACE assay (cleavage of HHL by ACE) [1]: 7.1 µM

ITP [tripeptide ITP (Ile-Thr-Pro), chemically synthesised]
IC50 value in µM, Modified Matsui assay (cleavage of Hip-His-Leu by ACE) [1]: 10 µM
IC50 value in µM, at-line ACE assay (cleavage of HHL by ACE) [1]: 50 µM

MAP [tripeptide MAP (Met-Ala-Pro), chemically synthesised]
IC50 value in µM, Modified Matsui assay (cleavage of Hip-His-Leu by ACE) [1]: 0.4 µM
IC50 value in µM, at-line ACE assay (cleavage of HHL by ACE) [1]: 3.8 µM
IC50 value in the Modified Matsui test [2]: 0.5 µM
